Experiments:
Format in all cases: cell-based, mouse
olfr62 [1] = assay: Living-cell staining of cell-surface olfr62; conditions: accessory protein co-transfected in 293T cells
Procedure: The proteins encoded by these clones were named REEP1, for Receptor Expression Enhancing Protein 1 and RTP1, for Receptor Transporting Protein 1. Subsequently, RTP2 was found, a close relative of RTP1. […] Next, REEP1, RTP1, and RTP2 were tested to detect a similar effect in promoting cell-surface expression of other ORs. Four different ORs (mouse OREG, mouse olfr62, mouse OR-S46 and rat I7) were expressed in 293T cells with or without REEP1, RTP1, or RTP2. […] Additionally, ORs transfected with REEP and/or RTP generated more immunofluorescent cells and stronger signals in positive cells compared with ORs without REEP and/or RTP (see FIG. 2A). The signal intensity and the number of immunopositive cells varied when using different ORs at each condition. […] Nonetheless, occasional immunopositive cells were observed only when the accessory proteins were co-expressed. The effects of RTP1 or RTP2 were consistently more robust than that of REEP1. The enhancement of cell-surface expression was specific for ORs and not for other GPCRs: neither REEP and/or RTP enhanced expression of the β2 adrenergic receptor, mT2R5 (a mouse bitter taste receptor) (see, e.g., Chandrashekar, J., et al. (2000) Cell 100, 703-711; herein incorporated by reference in its entirety), or a V2R pheromone receptor (VR4) (see, e.g., Matsunami, H., and Buck, L. B. (1997) Cell 90, 775-784; herein incorporated by reference in its entirety) (see FIG. 2A and FIG. 3). Finally, enhancement of cell-surface expression of MOR203-1 was not observed when other members of the REEP and RTP families (REEP2 and RTP4) were co-expressed.
293T cells were maintained in minimal essential medium containing 10% fetal bovine serum (M10). Lipofectamine 2000 (Invitrogen) was used for transfection. In live-cell staining, 16 hours after transfection, cells were incubated in M10 containing anti rhodopsin antibody, 4D2 (see, e.g., Laird, D. W., and Molday, R. S. (1988) Invest Opthalmol V is Sci 29, 419-428; herein incorporated by reference in its entirety) and 15 mM NaN3 at 4 degrees C. for 1 hour. After washing, cells were incubated with Cy3-conjugated anti mouse IgG (Jackson Immunologicals), washed and mounted. For FACS analysis, 4D2 and PE-conjugated anti mouse IgG (Jackson Immunologicals) were used to monitor the Rho tagged receptor expression. Anti HA rabbit antibodies (Sigma) and Alexa 488 conjugated anti rabbit IgG (Molecular Probes) was used to stain the HA-β2 adrenergic receptor. To establish the Hana3a cells, 1 ug/ml of puromycin was used for selection. 96 colonies were picked and assayed using luciferase assay using OREG.

MOR23-1 = assay: CRE-luciferase reporter gene assay, MOR23-1; conditions: 293T cells expressing RTP1 variant
Procedure: Four ORs (S6/79, S18, S46 and S50) previously assayed using other techniques (see, e.g., Malnic, B., et al. (1999) Cell 96, 713-723; herein incorporated by reference in its entirety) were tested against an assay panel of aliphatic alcohols, aldehydes and acids and some other odorants. Additionally, five “orphan” class I ORs (MOR23-1, MOR31-4, MOR31-6, MOR32-5 and MOR32-11) whose cognate ligands were unknown were tested. At a suprathreshold concentration of 100 uM, all these ORs were odorant selective, responding to only a small subset of the odorants tested (see FIG. 11A). This specificity was retained at lower, more physiologically relevant concentrations. Many of these ORs responded to odorants present in micromolar concentrations. The cell-surface expression of these ORs by living-cell immunofluorescence were evaluated. Some ORs (S18, MOR31-4, MOR31-6 and MOR32-5) were strongly expressed while other ORs (S6, S50, MOR23-1, MOR32-11) were weakly expressed (see FIG. 12). […]
Dual-Glo system (Promega) for luciferase assay was used. […] Luminescence was measured using Wallac Victor 1420 (Perkin-Elmer). Normalized luciferase activity was calculated as [Luc (N)-Luc (0)]/RL (N), where Luc (N)=Luminescent count of a certain well, Luc (0)=Luminescent count without odorant for each OR, and RL (N)=Luminescent count of Renilla Luciferase of each well. […]

olfr62 [2] = assay: CRE-luciferase reporter gene assay, olfr62; conditions: 293T cells expressing RTP1 variant
In short: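 Receptor-transfected 293T cells carrying CRE-luciferase plus SV40-Renilla control, switched to CD293 medium 12 h post-transfection, then exposed to odorants for 4 h at 37 °C. Signal is dual-luciferase normalized activity, [Luc(N) − Luc(0)]/Renilla.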

B1: RTP1-A1: RTP1 variant from deleting portions of RTP1-A; murine SEQ ID NO: 46, human SEQ ID NO: 47 (protein, listed as Mus musculus)
chain: MCKSVTTGEWKKVFYEKMEEVKPADSWDFIIDPNLKHNVLAPGWKQYLELHASGRFHCSWCWHTWQSPHVVILFHMYLDKAQRAGSVRMRVFKQLCYECGTARLDESSMLEENIESLVDNLITSLREQCYGERGGHYRIHVASRQDNRRHRGEFCEACQEGIVHWKPSEKLLEEEATTYTFSRAPSPTKPQAETGSGCNFCSIPWCLFWATVLMLIIYLQFSFRTSV
cell-surface expression of olfr62 (olfr62 [1]): Increased cell-surface staining | 23-1 activity as indicated by luciferase expression (MOR23-1): Increased enhancement | OLFR62 activity as indicated by luciferase expression (olfr62 [2]): Increased enhancement
